According to article PMC6066478, “Structural visualization of RNA polymerase III transcription machineries” (Cell Discovery, 2018):
Positions count from the first letter of the chain named. Blank lines part the entries; values can stand above or below the binder they belong to.

What was measured:
Bdp1 Δ355–372 = target: T1, Bdp1 Δ355–372 (Saccharomyces cerevisiae, UniProt P46678 1-594, Δ355–372); experiment: cryo-EM structure; Pol III iOC (intermediate OC), about 8.5 Å (TFIIIB lobe 15-25 Å): assembly with Bdp1 Δ355–372 on the closed DNA scaffold, assembly buffer plus 60 mM KCl; map only, no model deposited; details: both partners purified
T1 construct: Same construct as m3 apart from the deletion; source: E. coli BL21 (DE3) pRARE, purified as the wild-type protein
T1 sequence (looked up): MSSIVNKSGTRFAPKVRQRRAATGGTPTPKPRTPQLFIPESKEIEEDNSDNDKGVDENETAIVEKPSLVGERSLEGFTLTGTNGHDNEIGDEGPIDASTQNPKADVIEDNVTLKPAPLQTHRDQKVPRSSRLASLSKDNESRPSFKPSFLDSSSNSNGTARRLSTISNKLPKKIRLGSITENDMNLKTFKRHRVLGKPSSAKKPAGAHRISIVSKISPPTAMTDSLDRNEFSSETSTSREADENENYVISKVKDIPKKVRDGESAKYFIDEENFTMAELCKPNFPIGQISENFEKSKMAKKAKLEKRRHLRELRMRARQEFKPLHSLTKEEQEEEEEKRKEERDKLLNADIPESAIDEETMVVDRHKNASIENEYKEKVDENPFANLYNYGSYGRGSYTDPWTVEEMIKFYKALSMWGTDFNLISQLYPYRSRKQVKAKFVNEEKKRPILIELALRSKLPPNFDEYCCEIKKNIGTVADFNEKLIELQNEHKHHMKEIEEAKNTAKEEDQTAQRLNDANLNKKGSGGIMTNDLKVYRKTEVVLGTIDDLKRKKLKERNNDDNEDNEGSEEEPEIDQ

Bdp1 (B double prime) = target: T2, Bdp1 (B double prime) (Saccharomyces cerevisiae, UniProt P46678 1-594); experiment: cryo-EM structure; Pol III OC, 4.1 Å (TFIIIB 4.7 Å with soft mask): same assembly on the OC scaffold with a 10-nt mismatched bubble; details: both partners purified
T2 construct: Bdp1, S. cerevisiae, PCR amplified from genomic DNA; Cloned in pET21b(+) at SalI and NotI; The methods cite the purification of B''(138-594) only as the procedure followed; also called subunit of TFIIIB
T2 sequence: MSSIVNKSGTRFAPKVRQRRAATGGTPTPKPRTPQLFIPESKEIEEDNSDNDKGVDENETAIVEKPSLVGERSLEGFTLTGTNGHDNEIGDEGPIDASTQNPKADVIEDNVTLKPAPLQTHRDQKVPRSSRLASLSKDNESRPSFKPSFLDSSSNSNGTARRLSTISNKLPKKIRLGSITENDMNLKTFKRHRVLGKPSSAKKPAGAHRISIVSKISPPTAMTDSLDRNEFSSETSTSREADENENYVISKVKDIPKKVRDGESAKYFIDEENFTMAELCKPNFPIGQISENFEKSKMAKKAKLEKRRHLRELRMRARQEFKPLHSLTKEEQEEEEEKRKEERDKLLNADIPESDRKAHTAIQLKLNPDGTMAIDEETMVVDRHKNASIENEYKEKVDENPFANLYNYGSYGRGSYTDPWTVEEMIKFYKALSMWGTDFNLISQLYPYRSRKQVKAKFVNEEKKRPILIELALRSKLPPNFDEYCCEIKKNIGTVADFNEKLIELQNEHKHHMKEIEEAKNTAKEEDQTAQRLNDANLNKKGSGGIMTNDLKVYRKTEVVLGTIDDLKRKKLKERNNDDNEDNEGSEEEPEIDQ

[1] = target: T3, RNA polymerase III (17 subunits, incl. C160, C82/C34/C31, C53);Brf1N-TBPc-Brf1C chimera;Bdp1 (Saccharomyces cerevisiae;Saccharomyces …, UniProt P04051;P22276;P32349;P25441;P07703;P36121;P32910;P17890;P35718;P20434;P20435;P28 …, |internal_change|); experiment: cryo-EM; complex on EC scaffold, RNA not seen; 4.5 Å; EMD-7533; PIC assembled at room temperature; assembly buffer not given in the material; details: protein: native;recombinant;recombinant; tags: TAP tag on C53 C terminus (TEV-cleaved, calmodulin eluted);C-terminal 6xHis;C-terminal 6xHis; copies: 1;1;1;1;1;1;1;1;1;1;1;1;1;1;1;1;1;1;1; label: biotin 5' on strand 3; mismatched bubble +12 to +22 with RNA (strand 4); strands 2 and 3 both anneal to strand 1 (2-nt gap between them)
[2] = target: T3, RNA polymerase III (17 subunits, incl. …); experiment: cryo-EM; ITC; 4.1 Å; EMD-7530; PIC assembled at room temperature; assembly buffer not given in the material; details: protein: native;recombinant;recombinant; tags: TAP tag on C53 C terminus (TEV-cleaved, calmodulin eluted);C-terminal 6xHis;C-terminal 6xHis; copies: 1;1;1;1;1;1;1;1;1;1;1;1;1;1;1;1;1;1;1; label: biotin 5' on strand 3; mismatched bubble with RNA (strand 4, RNA written as printed); strands 2 and 3 both anneal to strand 1 (nick between them)
[3] = target: T3, RNA polymerase III (17 subunits, incl. …); experiment: cryo-EM; OC; 4.1 Å; EMD-7531; PIC assembled at room temperature; assembly buffer not given in the material; details: protein: native;recombinant;recombinant; tags: TAP tag on C53 C terminus (TEV-cleaved, calmodulin eluted);C-terminal 6xHis;C-terminal 6xHis; copies: 1;1;1;1;1;1;1;1;1;1;1;1;1;1;1;1;1;1;1; label: biotin 5' on strand 3; 10-nt mismatched bubble; strands 2 and 3 both anneal to strand 1 (nick between them)
[4] = target: RNA polymerase III (17 subunits, incl. C160, C82/C34/C31, C53);Brf1N-TBPc-Brf1C chimera;Bdp1 Δ355-372 (Saccharomyces cerevisiae;Saccharomyces …, UniProt P04051;P22276;P32349;P25441;P07703;P36121;P32910;P17890;P35718;P20434;P20435;P28 …, |internal_change|del355-372); experiment: cryo-EM; iOC, Brf1 ZR and C34 WH1 disordered; 8.5 Å; EMD-7534; PIC assembled at room temperature; assembly buffer not given in the material; details: protein: native;recombinant;recombinant; tags: TAP tag on C53 C terminus (TEV-cleaved, calmodulin eluted);C-terminal 6xHis;C-terminal 6xHis; copies: 1;1;1;1;1;1;1;1;1;1;1;1;1;1;1;1;1;1;1; label: biotin 5' on strand 3; strand 1 fully paired; strands 2 and 3 both anneal to strand 1 (nick between them)
[5] = target: T3, RNA polymerase III (17 subunits, incl. …); experiment: cryo-EM; nOC, spontaneously melted; 4.8 Å; EMD-7532; PIC assembled at room temperature; assembly buffer not given in the material; details: protein: native;recombinant;recombinant; tags: TAP tag on C53 C terminus (TEV-cleaved, calmodulin eluted);C-terminal 6xHis;C-terminal 6xHis; copies: 1;1;1;1;1;1;1;1;1;1;1;1;1;1;1;1;1;1;1; label: biotin 5' on strand 3; strand 1 fully paired; strands 2 and 3 both anneal to strand 1 (nick between them)

binding result (Bdp1 Δ355–372): binds | binding result (Bdp1 (B double prime)): binds
B1: chimera protein Brf1N-TBPc-Brf1C (other, Saccharomyces cerevisiae)
chain: MPVCKNCHGTEFERDLSNANNDLVCKACGVVSEDNPIVSEVTFGETSAGAAVVQGSFIGAGQSHAAFGGSSALESREATLNNARRKLRAVSYALHIPEYITDAAFQWYKLALANNFVQGRRSQNVIASCLYVACRKEKTHHMLIDFSSRLQVSVYSIGATFLKMVKKLHITELPLADPSLFIQHFAEKLDLADKKIKVVKDAVKLAQRMSKDWMFEGRRPAGIAGACILLACRMNNLRRTHTEIVAVSHVAEETLQQRLNEFKNTKAAKLSVQKFRENDVEDGEARPPSFVKNRKKERKIKDSLDKEEMFQTSEEALNKNPILTQVLGEQELSSKEVLFYLKQFSERRARVVERIKATNGIDGENIYHEGSENETRKRKLSEAMPWSGIVPTLQNIVATVTLGCRLDLKTVALHARNAEYNPKRFAAVIMRIREPKTTALIFASGKMVVTGAKSEDDSKLASRKYARIIQKIGFAAKFTDFKIQNIVGSCDVKFPIRLEGLAFSHGTFSSYEPELFPGLIYRMVKPKIVLLIFVSGKIVLTGAKQREEIYQAFEAIYPVLSEFRKMGSGSGSGSGSGSPRNLHLLPTTDTYLSKVSDDPDNLEDVDDEELNAHLLNEEASKLKERIWIGLNADFLLEQESKRLKQEADIATGNTSVKKKRTRRRNNTRSDEPTKTVDAAAAIGLMSDLQDKSGLHAALKAAEESGDFTTADSVKNMLQKASFSKKINYDAIDGLFR
notes: Brf1 (TFIIB-related factor), S. cerevisiae, N-terminal part up to residue 382 (residues 383-438 of Brf1 were replaced by TBPc); linker between Brf1 residue 382 and TBP residue 61; linker between TBP residue 240 and Brf1 residue 439; Brf1, S. cerevisiae, C-terminal part from residue 439 to the end of full-length Brf1; Cloned in pET21b(+) at SalI and NotI; The printed offset (632-649 in the chimera …)

binding result (Bdp1 (B double prime)): binds
B2: TATA box-binding protein (TBP) core domain, the TBPc part of the chimera Brf1N-TBPc-Brf1C (domain or fragment, Saccharomyces cerevisiae, UniProt P13393 61-240, looked up)
chain: SGIVPTLQNIVATVTLGCRLDLKTVALHARNAEYNPKRFAAVIMRIREPKTTALIFASGKMVVTGAKSEDDSKLASRKYARIIQKIGFAAKFTDFKIQNIVGSCDVKFPIRLEGLAFSHGTFSSYEPELFPGLIYRMVKPKIVLLIFVSGKIVLTGAKQREEIYQAFEAIYPVLSEFRKM
notes: TBP, S. cerevisiae, core domain residues 61-240; In the assay TBPc stood inside the chain of the chimera m2, between Brf1 1-382 and Brf1 439-end; this molecule is made only for the rows of TBP with Brf1 and Bdp1; source: E. coli BL21 (DE3) pRARE, purified, as part of the chimera m2

binding result (Bdp1 (B double prime)): binds
B3: C34 subunit of Pol III (natural protein, Saccharomyces cerevisiae, UniProt P32910 1-317, looked up)
chain: MSGMIENGLQLSDNAKTLHSQMMSKGIGALFTQQELQKQMGIGSLTDLMSIVQELLDKNLIKLVKQNDELKFQGVLESEAQKKATMSAEEALVYSYIEASGREGIWSKTIKARTNLHQHVVLKCLKSLESQRYVKSVKSVKFPTRKIYMLYSLQPSVDITGGPWFTDGELDIEFINSLLTIVWRFISENTFPNGFKNFENGPKKNVFYAPNVKNYSTTQEILEFITAAQVANVELTPSNIRSLCEVLVYDDKLEKVTHDCYRVTLESILQMNQGEGEPEAGNKALEDEEEFSIFNYFKMFPASKHDKEVVYFDEWTI
notes: C34, subunit of the Pol III-specific heterotrimer C82/34/31, S. cerevisiae; WH1 residues 10-77, WH2 residues 78-158; Stood in the assay as a subunit of the whole Pol III; source: endogenous, purified from S. cerevisiae as a subunit of Pol III (TAP tag on C53)

B4: EC scaffold with 20-mer RNA (mixed)
DNA 1: ACGCCTTAACCAACTTGGCCATGGAGTCATTTTATCTTGTGTCACTTTTACAGAAAAAGTATTACTAATATATGTTGAAAAACTGGGGAATTCCATGGTCCGTA
DNA 2: TTCAACATATATTAGTAATACTTTTTCTGTAAAAGTGACACAAGATAAAAATTTTTTTTGTCCAAGTTGGTTAAGGCGT
DNA 3: TACGGACCATGGAATTCCCCAGT
RNA: UUUUUUUUUUUAGACUCCAU
binding result [1]: binds

B5: ITC scaffold with 6-mer RNA (mixed)
DNA 1: CAACTTGGCCATGGAGTCATTTTATCTTGTGTCACTTTTACAGAAAAAGTATTACTAATATATGTTGAAAAACTGGGGAATTCCATGGTCCGTA
DNA 2: TTTTCAACATATATTAGTAATACTTTTTCTGTATTTTTTTTTTTTTTTTAAATGACTCCATGGCCAAGTTG
DNA 3: TACGGACCATGGAATTCCCCAGT
?: ACAAGA
binding result [2]: binds

B6: OC (open complex) scaffold (dsDNA)
DNA 1: B5 DNA 1
DNA 2: B5 DNA 2 with T44A, T45A, T46G, T47A, T49A
DNA 3: TACGGACCATGGAATTCCCCAGT
binding result [3]: binds

B7: CC (closed complex) scaffold (dsDNA)
DNA 1: B5 DNA 1
DNA 2: TTTTCAACATATATTAGTAATACTTTTTCTGTAAAAGTGACACAAGATAAAATGACTCCATGGCCAAGTTG
DNA 3: TACGGACCATGGAATTCCCCAGT
binding result [4]: binds | binding result [5]: binds
